Non-standard residues stand in square brackets, D forms with d. Phe(4-F) = N[C@@H](Cc1ccc(F)cc1)C(=O)O
Biological target: cyclin A (human) (UniProt P20248)
Assay: competitive cyclin A binding assay

Substance: H-RRL[Phe(4-F)]-NH2
- IC50: 19 µM

Source: patent US20050260730A1, “CDK2/cyclin A crystals and uses thereof” (priority 2003, published 2005)
